Positions count from the first letter of the chain named. Non-standard residues stand in square brackets, D forms with d. No end group written: not given here. pY = N[C@@H](Cc1ccc(OP(=O)(O)O)cc1)C(=O)O
Key:
activated Src (Src527F) = target: T1, activated Src (Src527F) (UniProt P00523 1-533); assay: co-expression with Src527F in 293T cells, immunoprecipitation and immunoblot
T1 construct: the old residue (Tyr) is from general knowledge

[1] = target: LexA-Src(295R) fusion protein (UniProt P0A7C2 1-202; P00523 1-533); assay: yeast two-hybrid, beta-galactosidase filter assay
[2] = target: T2, APP protein (endogenous, full-length) (UniProt P12023 18-770, limits assumed); assay: GST pull-down from P19 cell extracts, Western blot
T2 construct: P19 is a mouse line by general knowledge; also called endogenous, full-length APP; amyloid precursor protein
Description: To test whether mDab1 would bind to the cytoplasmic tail of the APP protein, extracts of P19 cells were incubated with GST fusion proteins and subjected to immunoblot analysis as described above. […] Bound proteins were detected by SDS-PAGE followed by Western blotting.

[3] = target: T3, GST-mDab1 PTB domain fusion protein (mouse, UniProt O75553 29-197 (human entry)); assay: cellulose peptide array, radiolabeled GST-PTB
T3 construct: also called GST-PTB; not shown: glutathione S-transferase encoded by the pGEX-2T vector
T3 sequence: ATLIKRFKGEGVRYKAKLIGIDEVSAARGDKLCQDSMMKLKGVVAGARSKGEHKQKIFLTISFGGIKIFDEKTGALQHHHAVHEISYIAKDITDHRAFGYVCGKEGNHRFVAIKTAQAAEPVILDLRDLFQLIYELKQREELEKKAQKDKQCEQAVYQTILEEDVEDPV

B1: mDab198/200F (mutant mDab555 with Phe in place of Tyr 198 and Tyr 200) (other)
chain: MSTETELQVAVKTSAKKDSRKKGQDRSEATLIKRFKGEGVRYKAKLIGIDEVSAARGDKLCQDSMMKLKGVVAGARSKGEHKQKIFLTISFGGIKIFDEKTGALQHHHAVHEISYIAKDITDHRAFGYVCGKEGNHRFVAIKTAQAAEPVILDLRDLFQLIYELKQREELEKKAQKDKQCEQAVYQTILEEDVEDPVFQFIVFEAGHEPIRDPETEENIYQVPTSQKKEGVYDVPKSQPVSAVTQLELFGDMSTPPDITSPPTPATPGDAFLPSSSQTLPGSADVFGSMSFGTAAVPSGYVAMGAVLPSFWGQQPLVQQQIAMGAQPPVAQVIPGAQPIAWGQPGLFPATQQAWPTVAGQFPPAAFMPTQTVMPLAAAMFQGPLTPLATVPGTNDSARSSPQSDKPRQKMGKESFKDFQMVQPPPVPSRKPDQPSLTCTSEAFSSYFNKVGVAQDTDDCDDFDISQLNLTPVTSTTPSTNSPPTPAPRQSSPSKSSASHVSDPTADDIFEEGFESPSKSEEQEAPDGSQASSTSDPFGEPSGEPSGDNISPQDGS
notes: Co-expressed with Src527F in 293T cells
- fold reduction of the in vivo association against mDab555 (activated Src (Src527F)): ~2 fold

B2: mDab1 clone B3 fused to the VP16 transactivation domain (other)
chain: HHHAVHEISYIAKDITDHRAFGYVCGKEGNHRFVAIKTAQAAEPVILDLRDLFQLIYELKQREELEKKAQKDKQCEQAVYQTILEEDVEDPVYQYIVFEAGHEPIRDPETEENIYQVPTSQKKEGVYDVPKSQPVSAVTQLELFGDMSTPPDITSPPTPATPGDAFLPS
- binding result [1]: no binding

B3: GST-mDab1 56E PTB domain fusion protein (other)
chain: T3 sequence with R28E
notes: also called mDab56E-GST; mutant mDab1 PTB; not shown: GST of pGEX-2T and its linker
- binding result [2]: no binding

B4: TrkA peptide with the motif Ile Ile Glu Asn Pro Gln Tyr, not phosphorylated (peptide)
peptide: IIENPQY
notes: 15 to 17 residue peptide on a cellulose array; only the motif is printed; also called NGF receptor (TrkA) peptide
- binding result [3]: no binding

Binder: IIENPQ[pY] (also: on cellulose array, NPXpY peptide on a cellulose array) [TrkA peptide with the motif Ile Ile Glu Asn Pro Gln Tyr, phosphorylated]
- binding result [3]: no binding
